According to paper PMC11313276, “Structures of Mature and Urea-Treated Empty Bacteriophage T5: Insights into Siphophage Infection and DNA Ejection” (International Journal of Molecular Sciences, 2024):

B1: distal tail protein pb9 (natural protein, bacteriophage T5)
chain: MRLPDPYTNPEYPGLGFESVNLVDNDPMIRDELPNGKVKEVKISAQYWGINISYPELFPDEYAFLDSRLLEYKRTGDYLDVLLPQYEAFRVRGDTKSVTIPAGQKGSQIILNTNGTLTGQPKAGDLFKLSTHPKVYKITNFSSSGNVWNISLYPDLFITTTGSEKPVFNGILFRTKLMNGDSFGSTLNNNGTYSGISLSLRESL
notes: distal tail protein pb9 of bacteriophage T5
B2: portal protein pb7 (natural protein, bacteriophage T5)
chain: LNPGQRIIRDMEPVSHRTNRKPFTTGQAYSKIEILNRTANMVIDSAAECSYTVGDKYNIVTYANGVKTKTLDTLLNVRPNPFMDISTFRRLVVTDLLFEGCAYIYWDGTSLYHVPAALMQVEADANKFIKKFIFNNQINYRVDEIIFIKDNSYVCGTNSQISGQSRVATVIDSLEKRSKMLNFKEKFLDNGTVIGLILETDEILNKKLRERKQEELQLDYNPSTGQSSVLILDGGMKAKPYSQISSFKDLDFKEDIEGFNKSICLAFGVPQVLLDGGNNANIRPNIELFYYMTIIPMLNKLTSSLTFFFGYKITPNTKEVAALTPDKEAEAKHLTSLVNNGIITGNEARSELNLEPLDDEQMNKIRIPANVAGSATGVSGQEGGRPKGSTEGD
notes: portal protein pb7 of bacteriophage T5, 403 residues in total; atomic model built for residues 11-377; source: also in virions treated with 4 M urea for 2 h at 37 °C and dialyzed; copies: 12
B3: p140 (natural protein, bacteriophage T5)
chain: MFYSLMRESKIVIEYDGRGYHFDALSNYDASTSFQEFKTLRRTIHNRTNYADSIINAQDPSSISLAINFSTTLIESNFFDWMGFTREGNSLFLPRNTPNIEPIMFNMYIINHNNSCIYFENCYVSTVDFSLDKSIPILNVGIESGKFSEVSTFRDGYTITQGEVLPYSAPAVYTNSSPLPALISASMSFQQQCSWREDRNIFDINKIYTNKRAYVNEMNASATLAFYYVKRLVGDKFLNLDPETRTPLIIKNKYVSITFPLARISKRLNFSDLYQVEYDVIPTADSDPVEINFFGERK
notes: tail tip complex protein p140 of bacteriophage T5
B4: baseplate hub protein pb3 (natural protein, bacteriophage T5)
chain: MKKILDSAKNYLNTHDKLKTACLIALELPSSSGSAATYIYLTDYFRDVTYNGILYRSGKVKSISSHKQNRQLSIGSLSFTITGTAEDEVLKLVQNGVSFLDRGITIHQAIINEEGNILPVDPDTDGPLLFFRGRITGGGIKDNVNTSGIGTSVITWNCSNQFYDFDRVNGRYTDDASHRGLEVVNGTLQPSNGAKRPEYQEDYGFFHSNKSTTILAKYQVKEERYKLQSKKKLFGLSRSYSLKKYYETVTKEVDLDFNLAAKFIPVVYGVQKIPGIPIFADTELNNPNIVYVVYAFAEGEIDGFLDFYIGDSPMICFDETDSDTRTCFGRKKIVGDTMHRLAAGTSTSQPSVHGQEYKYNDGNGDIRIWTFHGKPDQTAAQVLVDIAKKKGFYLQNQNGNGPEYWDSRYKLLDTAYAIVRFTINENRTEIPEISAEVQGKKVKVYNSDGTIKADKTSLNGIWQLMDYLTSDRYGADITLDQFPLQKVISEAKILDIIDESYQTSWQPYWRYVGWNDPLSENRQIVQLNTILDTSESVFKNVQGILESFGGAINNLSGEYRITVEKYSTNPLRINFLDTYGDLDLSDTTGRNKFNSVQASLVDPALSWKTNSITFYNSKFKEQDKGLDKKLQLSFANITNYYTARSYADRELKKSRYSRTLSFSVPYKFIGIEPNDPIAFTYERYGWKDKFFLVDEVENTRDGKINLVLQEYGEDVFINSEQVDNSGNDIPDISNNVLPPRDFKYTPTPGGVVGAIGKNGELSWLPSLTNNVVYYSIAHSGHVNPYIVQQLENNPNERMIQEIIGEPAGLAIFELRAVDINGRRSSPVTLSVDLNSAKNLSVVSNFRVVNTASGDVTEFVGPDVKLAWDKIPEEEIIPEIYYTLEIYDSQDRMLRSVRIEDVYTYDYLLTYNKADFALLNSGALGINRKLRFRIRAEGENGEQSVGWATI
notes: baseplate hub protein pb3 of bacteriophage T5
B5: tail tube protein (TTP) pb6 (natural protein, bacteriophage T5)
chain: MSLQLLRNTRIFVSTVKTGHNKTNTQEILVQDDISWGQDSNSTDITVNEAGPRPTRGSKRFNDSLNAAEWSFSTYILPYKDKNTSKQIVPDYMLWHALSSGRAINLEGTTGAHNNATNFMVNFKDNSYHELAMLHIYILTDKTWSYIDSCQINQAEVNVDIEDIGRVTWSGNGNQLIPLDEQPFDPDQIGIDDETYMTIQGSYIKNKLTILKIKDMDTNKSYDIPITGGTFTINNNITYLTPNVMSRVTIPIGSFTGAFELTGSLTAYLNDKSLGSMELYKDLIKTLKVVNRFEIALVLGGEYDDERPAAILVAKQAHVNIPTIETDDVLGTSVEFKAIPSDLDAGDEGYLGFSSKYTRTTINNLIVNGDGATDAVTAITVKSAGNVTTLNRSATLQMSVEVTPSSARNKEVTWAITAGDAATINATGLLRADASKTGAVTVEATAKDGSGVKGTKVITVTAGG
notes: tail tube protein pb6 of bacteriophage T5; domains pb6D1, pb6D2 and a protruding Ig-like domain; atomic model built for residues 3-378 (pb6D1 and pb6D2); The tail tube has 40 stacked trimeric rings
B6: major capsid protein (MCP) pb8 (natural protein, bacteriophage T5, UniProt Q6QGD8 160-458, looked up)
chain: AVNQSSSVEVSSESYETIFSQRIIRDLQKELVVGALFEELPMSSKILTMLVEPDAGKATWVAASTYGTDTTTGEEVKGALKEIHFSTYKLAAKSFITDETEEDAIFSLLPLLRKRLIEAHAVSIEEAFMTGDGSGKPKGLLTLASEDSAKVVTEAKADGSVLVTAKTISKLRRKLGRHGLKLSKLVLIVSMDAYYDLLEDEEWQDVAQVGNDSVKLQGQVGRIYGLPVVVSEYFPAKANSAEFAVIVYKDNFVMPRQRAVTVERERQAGKQRDAYYVTQRVNLQRYFANGVVSGTYAAS
notes: major capsid protein pb8 of bacteriophage T5, 458 residues; atomic model built for residues 164-457; also called MCP gp8; gp8
B7: decoration protein pb10 (natural protein, bacteriophage T5, UniProt Q6QGD6 1-164, looked up)
chain: MIDYSGLRTIFGEKLPESHIFFATVAAHKYVPSYAFLRRELGLSSAHTNRKVWKKFVEAYGKAIPPAPPAPPLTLSKDLTASMSVEEGAALTLSVTATGGTGPYTYAWTKDGSPIPDASGATYTKPTAAAEDAGSYKVTVTDSKQVSKDSTTCAVTVNPTVPGG
notes: decoration protein pb10 of bacteriophage T5, 164 residues; alpha-helical domain and Ig-like domain; only residues 2-68 (alpha-helical domain) were resolved; One pb10 at the centre of each hexon; the Ig-like domain is flexible and was not modelled; also called gp10

What was measured:
Test in all cases: cryo-EM structure; mature T5 virions (fiberless mutant) purified by CsCl gradients, in buffer A (100 mM NaCl, 1 mM MgSO4, 1 mM CaCl2, 10 mM Tris-HCl, pH 7.6); icosahedral, symmetry-mismatch and local reconstructions of head, portal, connector, tail tube and tail tip
[1] = target: tail terminator protein p142 (bacteriophage T5)
[2] = target: adaptor protein p144 (bacteriophage T5)
[3] = target: the molecule itself
[4] = target: B6; settings: both partners purified

| Molecule | stoichiometry N [3] | also measured |
| --- | --- | --- |
| tail terminator protein p142 (natural protein) | – | stoichiometry N [1]: 6 |
| adaptor protein p144 (natural protein) | – | stoichiometry N [2]: 12 |
| B1 | 6 | – |
| B2 | 12 | – |
| B3 | 3 | – |
| B4 | 3 | – |
| B5 | 3 | – |
| B6 | 775 | – |
| B7 | – | binding result [4]: binds |
